Measured values reported in patent US20120322073A1 (CELGENE, published 2012).

Biological target: T1, human CRBN protein (cereblon), full-length 51 kDa (human, UniProt Q96SW2 1-442)
T1 construct: also called human CRBN isoform 1 (NP-057386)
Test: denaturing immunoblot
Procedure: CGN-6-4-5 was diluted 1:10,000 dilution in 0.1% Tween PBS buffer. […] Peptide neutralization was performed by combining antibody with a five-fold (by weight) excess of blocking peptide in 500 μl PBS and incubating with constant rotation at room temperature for 2 hours.

T1 sequence (Q96SW2 whole entry, canonical isoform): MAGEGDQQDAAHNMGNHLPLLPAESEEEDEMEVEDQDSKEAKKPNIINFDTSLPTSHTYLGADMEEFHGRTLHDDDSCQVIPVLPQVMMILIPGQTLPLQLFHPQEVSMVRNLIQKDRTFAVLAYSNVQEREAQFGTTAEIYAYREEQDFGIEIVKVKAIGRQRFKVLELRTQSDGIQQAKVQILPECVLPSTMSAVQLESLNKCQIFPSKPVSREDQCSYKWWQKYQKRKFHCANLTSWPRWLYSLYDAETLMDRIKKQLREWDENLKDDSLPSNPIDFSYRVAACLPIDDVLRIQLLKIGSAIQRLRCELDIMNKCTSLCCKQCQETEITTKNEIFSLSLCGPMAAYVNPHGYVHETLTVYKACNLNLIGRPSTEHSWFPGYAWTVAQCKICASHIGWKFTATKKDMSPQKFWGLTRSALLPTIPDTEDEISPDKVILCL

binding result: binds
B1: Rabbit monoclonal antibody CGN-6-4-5 (antibody, V domains shown)
VH: QSVEESGGRLVTPGTPLTLTCTVSGFSLSRYGVSWVRQAPGKGLEHIGYIYSDPGMTFYATWAKGRFTISKTSSTTVDLKMTSPTIEDTATYFCARGTPLASYSTWGPGTLVTISL
VL: AQVLTQTPASVSAAVGGTVTINCQSSENIYKNNYLSWFQQKPGQPPKLLIYQASTLASGVPSRFKGSGSGTRFSLTISDLECDDAATYYCAGGYSGNIFTFGGGTEVVVKG
notes: Rabbit IgG from a CGN-6 hybridoma clone of rabbits primed with residues 65-76 of human CRBN; also called monoclonal anti-CRBN antibody
